Assay results taken from patent publication JP2023092810A (dated 2023).

B1: OKT3 scFv (scFv, V domains shown)
VH: QVQLVQSGGGVVQPGRSLRLSCKASGYTFTRYTMHWVRQAPGKGLEWIGYINPSRGYTNYNQKVKDRFTISRDNSKNTAFLQMDSLRPEDTGVYFCARYYDDHYSLDYWGQGTPVTVSS
notes: Made in E. coli; also called OKT3 scFv(コントロール); 変異導入前のOKT3 scFv; not shown: linker, VL of OKT3 (OL) and any tag
B2: OKT3 scFv-D65A/D82aN (scFv, name in Kabat numbering, V domains shown)
VH: QVQLVQSGGGVVQPGRSLRLSCKASGYTFTRYTMHWVRQAPGKGLEWIGYINPSRGYTNYNQKVKARFTISRDNSKNTAFLQMNSLRPEDTGVYFCARYYDDHYSLDYWGQGTPVTVSS
notes: not shown: linker, VL of OKT3 (OL) and any tag
B3: OKT3 scFv-D65N/D82aN (scFv, name in Kabat numbering, V domains shown)
VH: QVQLVQSGGGVVQPGRSLRLSCKASGYTFTRYTMHWVRQAPGKGLEWIGYINPSRGYTNYNQKVKNRFTISRDNSKNTAFLQMNSLRPEDTGVYFCARYYDDHYSLDYWGQGTPVTVSS
notes: as for B2

Each binder was assayed against プロテインA (rProtein A Sepharose Fast Flow) (UniProt P38507 37-327) (assay: rProtein A Sepharose Fast Flow column, fractions on SDS-PAGE).
B1: no binding.
B2: no binding.
B3: no binding.
